# Measured values from patent publication US20250312499A1, “KISSPEPTIN RECEPTOR (KISS1R) TARGETED THERAPEUTICS AND USES THEREOF” (priority 2024, published 2025).
# Numbered stars: 1 amine (or outer) side, 2 acyl side, 3 side chain; on linkers, the order of the positions; unused ones are H or OH. Square brackets hold non-standard residues; d marks the D form. * marks the point of attachment. X2 = 4‑amino‑1‑((3-fluoro-4-methylbenzyl)glycyl)piperidine‑4‑carboxylic acid, Cc1ccc(CN(CC(=O)N2CCC(N[*:1])(C(=O)[*:2])CC2)[*:3])cc1F; X10 = 3‑(2-(2-(3-(4-iodophenyl)propanamido)ethoxy)ethoxy)propanoyl, O=C(CCc1ccc(I)cc1)NCCOCCOCCC(=O)*; X6 = 3‑(2-(2-(3-(p-tolyl)propanamido)ethoxy)ethoxy)propanoyl, Cc1ccc(CCC(=O)NCCOCCOCCC(=O)*)cc1; DOTA = O=C(O)CN1CCN(CC(=O)O)CCN(CC(=O)*)CCN(CC(=O)O)CC1; Api(1-amidino) = N=C(N)N1CCC(N)(C(=O)O)CC1; d(γGlu) = O=C(O)[C@@H](CCC(=O)[*:2])N[*:1]; Phe(4-CN) = N#Cc1ccc(C[C@H](N)C(=O)O)cc1; d2Nal = N[C@H](Cc1ccc2ccccc2c1)C(=O)O; Ahx = NCCCCCC(=O)O; azaGly = NNC(=O)O
# Target: human kisspeptin receptor (KISS1R) (human), Q969F8
# Sequence (Q969F8 whole entry): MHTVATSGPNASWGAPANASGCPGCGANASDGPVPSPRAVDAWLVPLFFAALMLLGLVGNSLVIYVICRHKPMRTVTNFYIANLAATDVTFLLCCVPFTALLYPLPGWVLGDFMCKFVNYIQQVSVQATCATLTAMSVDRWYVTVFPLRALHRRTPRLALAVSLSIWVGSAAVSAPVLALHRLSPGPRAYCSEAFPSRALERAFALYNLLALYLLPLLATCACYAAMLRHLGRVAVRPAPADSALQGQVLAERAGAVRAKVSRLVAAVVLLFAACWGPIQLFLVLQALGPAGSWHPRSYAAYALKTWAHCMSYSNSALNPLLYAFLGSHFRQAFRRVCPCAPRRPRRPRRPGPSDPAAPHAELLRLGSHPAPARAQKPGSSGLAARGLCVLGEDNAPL
# Test: radioligand competition, hKISS1R membranes; legend: A is <10 nM
row,Binder,Ki [nM]
1,X6-[dY]K(DOTA)NTF[azaGly]L[Api(1-amidino)]F-NH2 (SMILES Cc1ccc(CCC(=O)NCCOCCOCCC(=O)N[C@H](Cc2ccc(O)cc2)C(=O)N[C@@H](CCCCNC(=O)CN2CCN(CC(=O)O)CCN(CC(=O)O)CCN(CC(=O)O)CC2)C(=O)N[C@@H](CC(N)=O)C(=O)N[C@H](C(=O)N[C@@H](Cc2ccccc2)C(=O)NNC(=O)N[C@@H](CC(C)C)C(=O)NC2(C(=O)N[C@@H](Cc3ccccc3)C(N)=O)CCN(C(=N)N)CC2)[C@@H](C)O)cc1) [Compound 322],< 10
2,{3‑(4-iodophenyl)propanoyl}-[d(γGlu)][dY]K(DOTA)NTF[azaGly]L[Api(1-amidino)]W-NH2 [Compound 320],< 10
3,{3‑(4-iodophenyl)propanoyl}-[dY]K(DOTA)NTF[azaGly]L[Api(1-amidino)]W-NH2 [Compound 321],< 10
4,{DOTA}-GY[Ahx]F[azaGly]L[X2]W-NH2 (SMILES Cc1ccc(CNCC(=O)N2CCC(NC(=O)[C@H](CC(C)C)NC(=O)NNC(=O)[C@H](Cc3ccccc3)NC(=O)CCCCCNC(=O)[C@H](Cc3ccc(O)cc3)NC(=O)CNC(=O)CN3CCN(CC(=O)O)CCN(CC(=O)O)CCN(CC(=O)O)CC3)(C(=O)N[C@@H](Cc3c[nH]c4ccccc34)C(N)=O)CC2)cc1F) [Compound 305],< 10
5,{DOTA}-[d2Nal]NTF[azaGly]L[Api(1-amidino)]F-NH2 (SMILES CC(C)C[C@H](NC(=O)NNC(=O)[C@H](Cc1ccccc1)NC(=O)[C@@H](NC(=O)[C@H](CC(N)=O)NC(=O)[C@@H](Cc1ccc2ccccc2c1)NC(=O)CN1CCN(CC(=O)O)CCN(CC(=O)O)CCN(CC(=O)O)CC1)[C@@H](C)O)C(=O)NC1(C(=O)N[C@@H](Cc2ccccc2)C(N)=O)CCN(C(=N)N)CC1) [Compound 302],< 10

# Other lines, results leading:
row,Ki [nM],Binder
1,< 10,X10-[dY]K(DOTA)NTF[azaGly]L[Api(1-amidino)]F-NH2 (SMILES CC(C)C[C@H](NC(=O)NNC(=O)[C@H](Cc1ccccc1)NC(=O)[C@@H](NC(=O)[C@H](CC(N)=O)NC(=O)[C@H](CCCCNC(=O)CN1CCN(CC(=O)O)CCN(CC(=O)O)CCN(CC(=O)O)CC1)NC(=O)[C@@H](Cc1ccc(O)cc1)NC(=O)CCOCCOCCNC(=O)CCc1ccc(I)cc1)[C@@H](C)O)C(=O)NC1(C(=O)N[C@@H](Cc2ccccc2)C(N)=O)CCN(C(=N)N)CC1) [Compound 323]
2,< 10,X10-[dY]K(DOTA)NTF[azaGly]L[Api(1-amidino)]Y-NH2 (SMILES CC(C)C[C@H](NC(=O)NNC(=O)[C@H](Cc1ccccc1)NC(=O)[C@@H](NC(=O)[C@H](CC(N)=O)NC(=O)[C@H](CCCCNC(=O)CN1CCN(CC(=O)O)CCN(CC(=O)O)CCN(CC(=O)O)CC1)NC(=O)[C@@H](Cc1ccc(O)cc1)NC(=O)CCOCCOCCNC(=O)CCc1ccc(I)cc1)[C@@H](C)O)C(=O)NC1(C(=O)N[C@@H](Cc2ccc(O)cc2)C(N)=O)CCN(C(=N)N)CC1) [Compound 324]
3,< 10,X10-[dY]K(DOTA)NTF[azaGly]L[Api(1-amidino)][Phe(4-CN)]-NH2 (SMILES CC(C)C[C@H](NC(=O)NNC(=O)[C@H](Cc1ccccc1)NC(=O)[C@@H](NC(=O)[C@H](CC(N)=O)NC(=O)[C@H](CCCCNC(=O)CN1CCN(CC(=O)O)CCN(CC(=O)O)CCN(CC(=O)O)CC1)NC(=O)[C@@H](Cc1ccc(O)cc1)NC(=O)CCOCCOCCNC(=O)CCc1ccc(I)cc1)[C@@H](C)O)C(=O)NC1(C(=O)N[C@@H](Cc2ccc(C#N)cc2)C(N)=O)CCN(C(=N)N)CC1) [Compound 325]
